Results from patent US20260035426.

Target: SB1902-C2
Sequence (chain, as listed by the source, chain 1 of 2): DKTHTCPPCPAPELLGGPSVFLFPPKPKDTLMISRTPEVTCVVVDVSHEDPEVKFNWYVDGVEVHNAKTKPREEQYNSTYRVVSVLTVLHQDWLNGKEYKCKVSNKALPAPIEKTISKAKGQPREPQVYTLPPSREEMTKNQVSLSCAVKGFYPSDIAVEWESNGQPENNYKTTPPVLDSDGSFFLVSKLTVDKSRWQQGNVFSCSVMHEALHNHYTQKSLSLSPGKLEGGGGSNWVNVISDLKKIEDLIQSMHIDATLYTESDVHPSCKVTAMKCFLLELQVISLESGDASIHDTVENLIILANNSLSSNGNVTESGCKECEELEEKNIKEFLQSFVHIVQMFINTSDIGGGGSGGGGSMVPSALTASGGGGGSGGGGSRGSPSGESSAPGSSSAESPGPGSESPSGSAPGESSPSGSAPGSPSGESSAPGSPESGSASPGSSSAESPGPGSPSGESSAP
Sequence (chain, as listed by the source, chain 2 of 2): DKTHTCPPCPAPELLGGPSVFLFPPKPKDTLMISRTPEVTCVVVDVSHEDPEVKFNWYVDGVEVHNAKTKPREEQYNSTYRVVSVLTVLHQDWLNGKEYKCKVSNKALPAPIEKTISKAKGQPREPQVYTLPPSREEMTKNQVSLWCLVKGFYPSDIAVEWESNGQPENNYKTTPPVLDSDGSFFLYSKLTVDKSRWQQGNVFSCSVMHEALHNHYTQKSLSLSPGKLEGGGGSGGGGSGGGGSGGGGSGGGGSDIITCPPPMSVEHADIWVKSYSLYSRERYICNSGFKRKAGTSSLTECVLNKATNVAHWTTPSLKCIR

B1: recombinant human MMP2 (protein)
chain: YNFFPRKPKWDKNQITYRIIGYTPDLDPETVDDAFARAFQVWSDVTPLRFSRIHDGEADIMINFGRWEHGDGYPFDGKDGLLAHAFAPGTGVGGDSHFDDDELWTLGEGQVVRVKYGNADGEYCKFPFLFNGKEYNSCTDTGRSDGFLWCSTTYNFEKDGKYGFCPHEALFTMGGNAEGQPCKFPFRFQGTSYDSCTTEGRTDGYRWCGTTEDYDRDKKYGFCPETAMSTVGGNSEGAPCVFPFTFLGNKYESCTSAGRSDGKMWCATTANYDDDRKWGFCPDQGYSLFLVAAHEFGHAMGLEHSQDPGALMAPIYTYTKNFRLSQDDIKGIQELYGASPDIDLGTGPTPTLGPVTPEICKQDIVFDGIAQIRGEIFFFKDRFIWRTVTPRDKPMGPLLVATFWPELPEKIDAVYEAPQEEKAVFFAGNEYWIYSASTLERGYPKPLTSLGLPPDVQRVDAAFNWSKNKKTYIFAGDKFWRYNEVKKKMDPGFPKLIADAWNAIPDNLDAVVDLQGGGHSYFFKGAYYLKLENQSLKSVKFGSIKSDWLGC
digestion efficiency by SDS-PAGE: about 90% of the prodrug SB1902-C2 was digested
